# Assay results published in US20260226161A1 (EXELIXIS, published 2026).
# Where a chain is given by its changes, count along the chain named.
# B1: P12 × A2A2 (1 × 2 format) (bispecific antibody)
# heavy 1: DIQMTQSPSSLSASVGDRVTITCRASQSVSSAVAWYQQKPGKAPKLLIYSASSLYSGVPSRFSGSRSGTDFTLTISSLQPEDFATYYCQQFMLEPITFGQGTKVEIKGQPREPQVCTLPPSRDELTKNQVSLTCLVRGFYPSDIAVEWESNGQPENNYKTTPPVLDSDGSFFLYSKLTVDKSRWQQGNVFSCSVMHEALHNHYTQKSLSLSPGKDKTHTCPPCPAPEAAGGPSVFLFPPKPKDTLMISRTPEVTCVVVDVSHEDPEVKFNWYVDGVEVHNAKTKPREEQYNSTYRVVSVLTVLHQDWLNGKEYKCKVSNKALKAPIEKTISKAKGQPREPQVYTLPPSREEMTKNQVSLSCAVKGFYPSDIAVEWESNGQPENNYKTTPPVLDSDGSFFLVSKLTVDKSRWQQGNVFSCSVMHEALHNHYTQKSLSLSPGK
# light 1: EVQLVESGGGLVQPGGSLRLSCAASGFTFSSYYIHWVRQAPGKGLEWVATINSRGGFTLYADSVKGRFTISADTSKNTAYLQMNSLRAEDTAVYYCARGYTLTPVLDYWGQGTLVTVSSAQPREPQVYTLPPCRDWLTKNQVSLTCLVKGFYPSDIAVEWESNGQPENNYKTTPPVLDSDGSFFLYSKLTVDKSRWQQGNVFSCSVMHEALHNHYTQKSLSLSPGK
# heavy 2: not shown
# light 2: EVQLVESGGGLVQPGGSLRLSCAASGFTFSSYYIHWVRQAPGKGLEWVASYVPEDGYTDYADSVKGRFTISADTSKNTAYLQMNSLRAEDTAVYYCARSSDFIPWTSSGGMDYWGQGTLVTVSSASTKGPSVFPLAPSSKSTSGGTAALGCLVKDYFPEPVTVSWNSGALTSGVHTFPAVLQSSGLYSLSSVVTVPSSSLGTQTYICNVNHKPSNTKVDKKVEPKSC
# notes: One PD-L1 site, two NKG2A sites; also called P12×A2A2, sFc; P12 × A2A2 sFc
# B2: P12 × A11A11 (1 × 2 format) (bispecific antibody)
# heavy 1: B1 heavy 1
# light 1: B1 light 1
# heavy 2: not shown
# light 2: EVQLVESGGGLVQPGGSLRLSCAASGFTFSWYYIHWVRQAPGKGLEWVAVIDPISSYTYYADSVKGRFTISADTSKNTAYLQMNSLRAEDTAVYYCARGFDRAMDYWGQGTLVTVSSASTKGPSVFPLAPSSKSTSGGTAALGCLVKDYFPEPVTVSWNSGALTSGVHTFPAVLQSSGLYSLSSVVTVPSSSLGTQTYICNVNHKPSNTKVDKKVEPKSC
# notes: One PD-L1 site, two NKG2A sites; also called P12×A11A11, sFc; P12 × A11A11 sFc
# B3: P12P12 × A2 (2 × 1 format) (bispecific antibody)
# heavy 1: DIQMTQSPSSLSASVGDRVTITCRASQSVSSAVAWYQQKPGKAPKLLIYSASSLYSGVPSRFSGSRSGTDFTLTISSLQPEDFATYYCQQFMLEPITFGQGTKVEIKGQPREPQVCTLPPSRDELTKNQVSLTCLVRGFYPSDIAVEWESNGQPENNYKTTPPVLDSDGSFFLYSKLTVDKSRWQQGNVFSCSVMHEALHNHYTQKSLSLSPGKTASSGGSSSGDIQMTQSPSSLSASVGDRVTITCRASQSVSSAVAWYQQKPGKAPKLLIYSASSLYSGVPSRFSGSRSGTDFTLTISSLQPEDFATYYCQQFMLEPITFGQGTKVEIKGQPREPQVCTLPPSRDELTKNQVSLTCLVRGFYPSDIAVEWESNGQPENNYKTTPPVLDSDGSFFLYSKLTVDKSRWQQGNVFSCSVMHEALHNHYTQKSLSLSPGKDKTHTCPPCPAPEAAGGPSVFLFPPKPKDTLMISRTPEVTCVVVDVSHEDPEVKFNWYVDGVEVHNAKTKPREEQYNSTYRVVSVLTVLHQDWLNGKEYKCKVSNKALKAPIEKTISKAKGQPREPQVYTLPPSREEMTKNQVSLSCAVKGFYPSDIAVEWESNGQPENNYKTTPPVLDSDGSFFLVSKLTVDKSRWQQGNVFSCSVMHEALHNHYTQKSLSLSPGK
# light 1: B1 light 1
# heavy 2: not shown
# light 2: B1 light 2
# notes: Two PD-L1 sites, one NKG2A site; also called P12P12 × A2 sFc
# B4: Antibody Clone A3 (antibody, human IgG1, kappa, V domains shown)
# VH: EVQLVESGGGLVQPGGSLRLSCAASGFTFSSYYIHWVRQAPGKGLEWVASISPYDGYTDYADSVKGRFTISADTSKNTAYLQMNSLRAEDTAVYYCARSSDFSPWTSSGGMDYWGQGTLVTVSS
# VL: DIQMTQSPSSLSASVGDRVTITCRASQSVSSAVAWYQQKPGKAPKLLIYSASSLYSGVPSRFSGSRSGTDFTLTISSLQPEDFATYYCQQYGSSLRTFGQGTKVEIKR
# B5: Antibody Clone A2 (antibody, human IgG1, kappa, V domains shown)
# VH: B4 VH with I51Y, S52V, Y54E, S103I
# VL: B4 VL with S31R, Y55H, L95A
# Assays:
# PD-L1 expressed on cells [1] = molecular target: T1, PD-L1 expressed on cells (UniProt Q9NZQ7 19-290, limits assumed); test: cell-based or functional assay
# T1 sequence (Q9NZQ7 19-290 limits assumed): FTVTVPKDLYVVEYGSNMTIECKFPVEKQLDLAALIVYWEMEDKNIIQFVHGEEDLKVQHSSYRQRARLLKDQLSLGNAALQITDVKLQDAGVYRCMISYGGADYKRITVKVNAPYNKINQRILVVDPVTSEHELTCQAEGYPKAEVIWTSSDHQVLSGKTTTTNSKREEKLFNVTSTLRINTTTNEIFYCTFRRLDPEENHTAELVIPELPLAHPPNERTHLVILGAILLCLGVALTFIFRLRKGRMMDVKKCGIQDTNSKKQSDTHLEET
# PD-L1 expressed on cells [2] = molecular target: T1, PD-L1 expressed on cells; test: flow cytometry on MC/CAR cells expressing PD-L1
# Procedure: (§1) Cells were collected by centrifugation at 400×g for 7 minutes and primary antibody was removed. 50 μL per well of AF488 goat anti human IgG Fab (Jackson Immuno Research 109-547-003) at 1:100 dilution was added. Plates were placed at 4° C. for 30 minutes.
# (§2) Cells were collected by centrifugation at 400×g for 7 minutes and secondary antibody was removed. Cells were resuspended in 50 μL per well of PBS and analyzed by flow cytometry. Binding curves were calculated using the mean fluorescence intensity (MFI) of the FITC fluorescence signal on the cells. Bispecific antibody binding was evaluated in KHYG-1 cells expressing endogenous NKG2A and in MC/CAR cells expressing PD-L1. Cells were harvested and assayed for binding as described above.
# [3] = molecular target: T2, Human NKG2A & CD94 with mouse IgG2a Fc tag (AcroBiosystems) (human, UniProt P26715 94-233; Q13241 32-179, limits assumed); test: SPR (Carterra), antibody on chip, soluble antigen
# T2 construct: Bought soluble antigen of the Carterra assay; also called hNKG2A; not shown: mouse IgG2a Fc tag
# T2 sequence (P26715 94-233 limits assumed, chain 1 of 2): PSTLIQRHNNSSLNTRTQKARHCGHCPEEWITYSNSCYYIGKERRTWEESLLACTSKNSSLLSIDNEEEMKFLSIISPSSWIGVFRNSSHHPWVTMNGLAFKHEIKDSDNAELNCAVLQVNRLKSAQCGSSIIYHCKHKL
# T2 sequence (Q13241 32-179 limits assumed, chain 2 of 2): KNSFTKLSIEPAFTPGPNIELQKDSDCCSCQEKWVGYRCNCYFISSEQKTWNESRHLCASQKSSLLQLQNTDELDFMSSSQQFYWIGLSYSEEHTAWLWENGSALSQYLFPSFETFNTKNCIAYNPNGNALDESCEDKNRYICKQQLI
# [4] = molecular target: T3, Human PD-L1 with His tag (AcroBiosystems) (human, UniProt Q9NZQ7 19-238); test: SPR (Carterra), antibody on chip, soluble antigen
# T3 construct: Bought protein; also called hPD-L1; not shown: His tag
# T3 sequence (Q9NZQ7 19-238 limits assumed): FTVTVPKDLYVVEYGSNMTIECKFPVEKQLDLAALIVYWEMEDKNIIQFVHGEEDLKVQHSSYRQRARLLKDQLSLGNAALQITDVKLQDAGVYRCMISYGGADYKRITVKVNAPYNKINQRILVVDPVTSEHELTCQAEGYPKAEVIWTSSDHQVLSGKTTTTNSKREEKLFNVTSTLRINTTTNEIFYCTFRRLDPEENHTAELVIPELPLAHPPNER
# Cyno PD-L1 = Cyno PD-L1 (cyno, UniProt G7PSE7 19-238); test: SPR (Carterra), antibody on chip, soluble antigen
# Chain of Cyno PD-L1 (G7PSE7 entry or part of it limits assumed): as the sequence (Q9NZQ7 19-238 limits assumed) above, with A33T, A34S, S62N, R68Q, Q82R, F173L, T185A, T192I, H215L counted along it
# [5] = molecular target: T4, NKG2A expressed on KHYG-1 cells (endogenous) (human, UniProt P26715 1-233; Q13241 1-179); test: flow cytometry on KHYG-1 cells expressing endogenous NKG2A
# T4 construct: whole, on cells; Surface NKG2A copy number of approximately 10-20K; also called KHYG-1 cells expressing endogenous NKG2A; NKG2A-expressing cells
# T4 sequence (P26715 whole entry, chain 1 of 2): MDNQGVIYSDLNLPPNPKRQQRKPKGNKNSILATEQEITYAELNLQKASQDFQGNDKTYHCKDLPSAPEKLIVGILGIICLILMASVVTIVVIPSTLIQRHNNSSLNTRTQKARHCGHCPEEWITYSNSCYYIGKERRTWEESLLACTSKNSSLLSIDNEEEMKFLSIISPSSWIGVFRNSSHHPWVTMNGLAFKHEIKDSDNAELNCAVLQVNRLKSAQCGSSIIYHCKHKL
# T4 sequence (Q13241 whole entry, chain 2 of 2): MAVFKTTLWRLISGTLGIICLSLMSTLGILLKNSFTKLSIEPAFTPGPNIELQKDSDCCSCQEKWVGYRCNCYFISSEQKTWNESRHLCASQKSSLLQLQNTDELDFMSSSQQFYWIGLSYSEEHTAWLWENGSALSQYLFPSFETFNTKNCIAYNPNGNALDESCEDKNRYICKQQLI
# Procedure: as §1, §2
# [6] = molecular target: T4, NKG2A expressed on KHYG-1 cells …; test: flow cytometry competition; inhibition of HLA-E tetramer binding to KHYG-1 cells
# Procedure: 15 μL per well of binder dilution at 2× concentration was plated in a 96-well plate (Costar 3897). 15 μL per well of cell suspension at 5×10⁶ cells per mL was added. Plates were placed at 4° C. for 30 minutes. Following the incubation, 5 μL per well of Fc block (BD Pharmingen Cat #564220) was added at a final concentration of 500 ng per well. Plates were placed at 4° C. for 10 minutes. […] Plates were placed at 4° C. for 1 hour. Following the incubation, 100 μL per well of PBS was added and plate was centrifuged at 400×g for 7 minutes. Supernatant was removed by flicking the plate. Cells were resuspended in 50 μL per well of PBS and analyzed by flow cytometry (Intellicyt).
# [7] = molecular target: T5, biotinylated human NKG2C/CD94 heterodimer (extracellular domains, Fc fusions) (human, UniProt P26717 94-231; Q13241 32-179, biotinylated); test: BLI (Octet), summary of the examples
# T5 construct: not shown: N-terminal Fc (hole)
# T5 sequence (P26717 other isoform, or with tags, fused parts or gaps, chain 1 of 2): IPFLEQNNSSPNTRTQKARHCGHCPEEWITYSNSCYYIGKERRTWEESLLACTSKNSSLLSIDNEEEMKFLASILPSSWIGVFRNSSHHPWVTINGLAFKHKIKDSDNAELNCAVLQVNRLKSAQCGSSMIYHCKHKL
# T5 sequence (Q13241 32-179, chain 2 of 2): as the sequence (Q13241 32-179 limits assumed, chain 2 of 2) above
# Procedure: The antibodies were evaluated for binding to (1) human NKG2A, (2) human NKG2C, and (3) cyno NKG2A. Bivalent interaction of binders to biotinylated human NKG2A (see Example 1), biotinylated human NKG2C/CD94 heterodimer, or biotinylated cyno NKG2A/CD94 heterodimer immobilized on a streptavidin biosensor was monitored using Octet (Pall ForteBio) instrument. For these assays, human NKG2C/CD94 and cyno NKG2A/CD94 were prepared using the procedure as described in Example 1. Similarly, the extracellular domain of human NKG2C was expressed and purified from HEK293 cells as heterodimer with CD94 as Fc fusions. The extracellular domain of NKG2C used for selection campaigns encompassed amino acid sequence Ile94-Leu231 (Accession No. P26717-1; SEQ ID NO: 75). The gene encoding CD94 (Accession No. Q13241-1, SEQ ID NO:76), Lys33-Ile159 was synthesized from IDT and cloned into mammalian expression vector as an N-terminal Fc (hole) fusion. Plasmids encoding NKG2C-Fc fusion and CD94-Fc fusion were co-transfected into HEK293T cells using standard procedures. NKG2C/CD94 heterodimer was purified from cell supernatant using Protein A resins. Similar approach was used to obtain Cynomolgus NKG2A protein. Specifically, extracellular domain of Cynomolgus NKG2A contained amino acid Pro 94-Leu 233. […]
# [8] = molecular target: T4, NKG2A expressed on KHYG-1 cells …; test: flow cytometry on KHYG-1 cells expressing endogenous NKG2A; remark: listed apart in the source
# Procedure: Antibodies that were selected for binding to NKG2A, for example, such as those described in Examples 1 and 2, were evaluated for binding to cells that express NKG2A.
# Cells were harvested at 70-90% confluence on the day of the assay. Cells were collected by centrifugation at 200×g for 5 minutes and media was removed. Cells were resuspended at 2×10⁶ cells per mL in cold PBS. […] 50 μL per well of the antibody dilution was plated in a 96 well V-bottom plate (Costar 3897). 50 μL per well of cell suspension was added. Plates were placed at 4° C. for 45-60 minutes.
# [9] = molecular target: T6, biotinylated cyno NKG2A/CD94 heterodimer (extracellular domains) (cynomolgus, UniProt Q9MZJ3 94-233; Q9MZK9 32-179, biotinylated); test: BLI (Octet), bivalent
# T6 construct: also called Cynomolgus NKG2A protein; not shown: fusion partner/tags ('similar approach' to the human proteins); fusion partner ('similar approach')
# T6 sequence (Q9MZJ3 other isoform, or with tags, fused parts or gaps, chain 1 of 2): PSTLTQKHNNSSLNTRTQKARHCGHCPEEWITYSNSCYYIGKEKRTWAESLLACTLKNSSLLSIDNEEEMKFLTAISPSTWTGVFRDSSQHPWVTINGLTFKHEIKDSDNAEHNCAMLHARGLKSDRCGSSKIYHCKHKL
# T6 sequence (Q9MZK9 32-179, chain 2 of 2): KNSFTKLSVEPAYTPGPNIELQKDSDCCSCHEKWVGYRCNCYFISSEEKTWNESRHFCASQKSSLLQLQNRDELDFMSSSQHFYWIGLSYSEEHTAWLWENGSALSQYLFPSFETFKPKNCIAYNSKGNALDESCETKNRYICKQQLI
# Procedure: A total of 58 binders formatted as IgG antibodies from phage display as described in Example 1 were further tested for binding.
# The antibodies were evaluated for binding to (1) human NKG2A, (2) human NKG2C, and (3) cyno NKG2A. Bivalent interaction of binders to biotinylated human NKG2A (see Example 1), biotinylated human NKG2C/CD94 heterodimer, or biotinylated cyno NKG2A/CD94 heterodimer immobilized on a streptavidin biosensor was monitored using Octet (Pall ForteBio) instrument. For these assays, human NKG2C/CD94 and cyno NKG2A/CD94 were prepared using the procedure as described in Example 1. Similarly, the extracellular domain of human NKG2C was expressed and purified from HEK293 cells as heterodimer with CD94 as Fc fusions. The extracellular domain of NKG2C used for selection campaigns encompassed amino acid sequence Ile94-Leu231 (Accession No. P26717-1; SEQ ID NO: 75). The gene encoding CD94 (Accession No. Q13241-1, SEQ ID NO:76), Lys33-Ile159 was synthesized from IDT and cloned into mammalian expression vector as an N-terminal Fc (hole) fusion. Plasmids encoding NKG2C-Fc fusion and CD94-Fc fusion were co-transfected into HEK293T cells using standard procedures. NKG2C/CD94 heterodimer was purified from cell supernatant using Protein A resins. Similar approach was used to obtain Cynomolgus NKG2A protein. Specifically, extracellular domain of Cynomolgus NKG2A contained amino acid Pro 94-Leu 233. […] Extracellular domain of Cynomolgus CD94 contained amino acid residues Lys 33-Ile 179 (Accession No. Q68VD4-1; SEQ ID NO: 78).
Binder,"IC50 of inhibiting PD-1/PD-L1 interaction in PD-L1+MDA-MB-231 cells (PD-1/PD-L1 Signaling Bioassay, chemiluminescent signal) (PD-L1 expressed on cells [1]) [nM]",EC50 (PD-L1 expressed on cells [2]) [nM],Kd [3] [nM],koff [3] [s⁻¹],kon [3] [M⁻¹ s⁻¹],Kd [4] [nM],koff [4] [s⁻¹],kon [4] [M⁻¹ s⁻¹],Kd (Cyno PD-L1) [nM],koff (Cyno PD-L1) [s⁻¹],kon (Cyno PD-L1) [M⁻¹ s⁻¹],EC50 [5] [nM],EC50 [6] [nM],binding result [7],EC50 [8] [nM],binding result [9]
B1,0.689,6.49,0.15,5e-05,360000,0.15,7e-05,470000,0.12,5e-05,480000,0.149,0.36,,,
B2,0.567,1.76,0.34,9e-05,270000,0.24,9e-05,380000,0.13,6e-05,470000,0.168,0.42,,,
B3,0.714,8.67,,,,,,,,,,0.827,46.4,,,
B4,,,,,,,,,,,,,,no binding,0.303,
B5,,,,,,,,,,,,,,no binding,37.5,no binding
